Publication PMC3759041

Target: GFP-Hace1 (HECT domain and Ankyrin repeat Containing E3 ubiquitin-protein ligase 1) (UniProt Q8IYU2)
Sequence of UniProt Q8IYU2 (Q8IYU2 whole entry, the tested form may be a part): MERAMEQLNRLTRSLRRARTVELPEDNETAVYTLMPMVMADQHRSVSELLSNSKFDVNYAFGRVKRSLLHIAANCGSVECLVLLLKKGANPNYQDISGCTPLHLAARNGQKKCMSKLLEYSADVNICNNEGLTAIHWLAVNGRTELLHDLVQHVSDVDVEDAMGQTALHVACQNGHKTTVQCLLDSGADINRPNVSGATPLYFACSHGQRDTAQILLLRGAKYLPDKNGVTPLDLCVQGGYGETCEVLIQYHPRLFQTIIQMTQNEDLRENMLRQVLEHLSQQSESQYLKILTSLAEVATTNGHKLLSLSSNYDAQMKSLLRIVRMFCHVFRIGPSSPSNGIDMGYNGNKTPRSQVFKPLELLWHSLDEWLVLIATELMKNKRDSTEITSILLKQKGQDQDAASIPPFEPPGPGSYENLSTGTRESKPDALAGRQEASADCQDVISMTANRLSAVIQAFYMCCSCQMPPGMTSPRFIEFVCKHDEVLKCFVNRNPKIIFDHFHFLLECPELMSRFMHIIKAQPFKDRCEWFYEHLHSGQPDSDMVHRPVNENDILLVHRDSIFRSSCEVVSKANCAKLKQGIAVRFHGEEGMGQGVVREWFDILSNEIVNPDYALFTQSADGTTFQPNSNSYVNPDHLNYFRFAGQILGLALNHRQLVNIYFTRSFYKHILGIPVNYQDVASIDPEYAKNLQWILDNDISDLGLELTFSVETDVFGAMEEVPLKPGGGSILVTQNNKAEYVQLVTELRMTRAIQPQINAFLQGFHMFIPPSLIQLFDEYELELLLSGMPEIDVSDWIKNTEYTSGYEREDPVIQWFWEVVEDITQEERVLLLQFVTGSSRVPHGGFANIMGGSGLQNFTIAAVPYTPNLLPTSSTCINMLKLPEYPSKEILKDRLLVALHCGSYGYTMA

- fraction of the total Rac1 pool bound by Hace1: < 10%
Substance: Rac1 (from UniProt P63000 1-192) (natural protein; other documents disagree on this pair)
